Laboratory results: the supplement of paper PMC12458215
± gives the uncertainty stated by the source.

Test system: HEK293T
Assay: plasma membrane surface immunostaining intensity (anti-HA, deep receptor scanning) (arbitrary fluorescence units); higher = higher plasma membrane expression

| Sequence | plasma membrane surface immunostaining intensity (GPCR class: A) | plasma membrane surface immunostaining intensity (GPCR class: A (Olfactory)) |
| --- | --- | --- |
| MVNNFSQAEAVELCYKNVNESCIKTPYSPGPRSILYAVLGFGAVLAAFGNLLVMIAILHFKQLHTPTNFLIASLACADFLVGVTVMPFSTVRSVESCWYFGDSYCKFHTCFDTSFCFASLFHLCCISVDRYIAVTDPLTYPTKFTVSVSGICIVLSWFFSVTYSFSIFYTGANEEGIEELVVALTCVGGCQAPLNQNWVLLCFLLFFIPNVAMVFIYSKIFLVAKHQARKIESTASQAQSSSESYKERVAKRERKAAKTLGIAMAAFLVSWLPYLVDAVIDAYMNFITPPYVYEILVWCVYYNSAMNPLIYAFFYQWFGKAIKLIVSGKVLRTDSSTTNLFSEEVETD [TAAR9] | 136 ± 34 | – |
| MVNQSSTPGFLLLGFSEHPGLERTLFVVVLTSYLLTLVGNTLIILLSALDPKLHSPMYFFLSNLSFLDLCFTTSCVPQMLVNLWGPKKTISFLDCSVQIFIFLSLGTTECILLTVMAFDRYVAVCQPLHYATIIHPRLCWQLASVAWVIGLVESVVQTPSTLHLPFCPDRQVDDFVCEVPALIRLSCEDTSYNEIQVAVASVFILVVPLSLILVSYGAITWAVLRINSAKGRRKAFGTCSSHLTVVTLFYSSVIAVYLQPKNPYAQERGKFFGLFYAVGTPSLNPLIYTLRNKEVTRAFRRLLGKEMGLTQS [OR2H2] | – | 145 ± 10 |
| MVPHLLLLCLLPLVRATEPHEGRADEQSAEAALAVPNASHFFSWNNYTFSDWQNFVGRRRYGAESQNPTVKALLIVAYSFIIVFSLFGNVLVCHVIFKNQRMHSATSLFIVNLAVADIMITLLNTPFTLVRFVNSTWIFGKGMCHVSRFAQYCSLHVSALTLTAIAVDRHQVIMHPLKPRISITKGVIYIAVIWTMATFFSLPHAICQKLFTFKYSEDIVRSLCLPDFPEPADLFWKYLDLATFILLYILPLLIISVAYARVAKKLWLCNMIGDVTTEQYFALRRKKKKTIKMLMLVVVLFALCWFPLNCYVLLLSSKVIRTNNALYFAFHWFAMSSTCYNPFIYCWLNENFRIELKALLSMCQRPPKPQEDRPPSPVPSFRVAWTEKNDGQRAPLANNLLPTSQLQSGKTDLSSVEPIVTMS [GPR83] | 490 ± 39 | – |
| MVWENQTFNSIFILLGIFNHSPTHTFLFSLVLGIFSLALMENISMVLLIYIEKQLHTPMYFLLSQLSLMDLMLICTTLPKMIFSYLSGKKSISLAGCGTQIFFYVSLLGAECFLLAVMAYDRYVAICHPLQYTILMNPKLCVFMTVASWTLGSLDGIIVLAAVLSFSYCSSLEIHHFFCDVAALLPLSCTETSAFERLLVICCVVMLIFPVSVIILSYSHVLRAVIHMGSGESRRKAFTTCSSHLSVVGLYYGAAMFMYMRPASKHTPDQDKMVSAFYTILTPMLNPLIYSLRNKEVFRALQKVLKKRKLI [OR2M4] | – | 172 ± 36 |
| MWGRLLLWPLVLGFSLSGGTQTPSVYDESGSTGGGDDSTPSILPAPRGYPGQVCANDSDTLELPDSSRALLLGWVPTRLVPALYGLVLVVGLPANGLALWVLATQAPRLPSTMLLMNLAAADLLLALALPPRIAYHLRGQRWPFGEAACRLATAALYGHMYGSVLLLAAVSLDRYLALVHPLRARALRGRRLALGLCMAAWLMAAALALPLTLQRQTFRLARSDRVLCHDALPLDAQASHWQPAFTCLALLGCFLPLLAMLLCYGATLHTLAASGRRYGHALRLTAVVLASAVAFFVPSNLLLLLHYSDPSPSAWGNLYGAYVPSLALSTLNSCVDPFIYYYVSAEFRDKVRAGLFQRSPGDTVASKASAEGGSRGMGTHSSLLQ [F2RL3] | 894 ± 240 | – |
| MWNATPSEEPGFNLTLADLDWDASPGNDSLGDELLQLFPAPLLAGVTATCVALFVVGIAGNLLTMLVVSRFRELRTTTNLYLSSMAFSDLLIFLCMPLDLVRLWQYRPWNFGDLLCKLFQFVSESCTYATVLTITALSVERYFAICFPLRAKVVVTKGRVKLVIFVIWAVAFCSAGPIFVLVGVEHENGTDPWDTNECRPTEFAVRSGLLTVMVWVSSIFFFLPVFCLTVLYSLIGRKLWRRRRGDAVVGASLRDQNHKQTVKMLAVVVFAFILCWLPFHVGRYLFSKSFEPGSLEIAQISQYCNLVSFVLFYLSAAINPILYNIMSKKYRVAVFRLLGFEPFSQRKLSTLKDESSRAWTESSINT [GHSR] | 1480 ± 520 | – |
